The source of these data is paper PMC10001486, “Artificial Intelligence-Based Computational Screening and Functional Assays Identify Candidate Small Molecule Antagonists of PTPmu-Dependent Adhesion” (International Journal of Molecular Sciences, 2023).

The series concerns the molecule itself. Kind of series: bead aggregation assay; streptavidin MonoMag beads (1 micron) coated with biotin-tagged PTPµ21-365avi; PBS + 0.01% Tween 20; room temperature; rotation at 150 rpm for 30 min; aggregates over 50 µm^2 counted by microscopy.

B1: PTPµ21-365avi (fragment of PTPµ containing the MAM, Ig, and first FNIII repeat) (domain or fragment, human, UniProt P28827 21-365, looked up)
chain: ETFSGGCLFDEPYSTCGYSQSEGDDFNWEQVNTLTKPTSDPWMPSGSFMLVNASGRPEGQRAHLLLPQLKENDTHCIDFHYFVSSKSNSPPGLLNVYVKVNNGPLGNPIWNISGDPTRTWNRAELAISTFWPNFYQVIFEVITSGHQGYLAIDEVKVLGHPCTRTPHFLRIQNVEVNAGQFATFQCSAIGRTVAGDRLWLQGIDVRDAPLKEIKVTSSRRFIASFNVVNTTKRDAGKYRCMIRTEGGVGISNYAELVVKEPPVPIAPPQLASVGATYLWIQLNANSINGDGPIVAREVEYCTASGSWNDRQPVDSTSYKIGHLDPDTEYEISVLLTRPGEGGTGS
modifications: biotin (biotin-tagged)
notes: PTPµ, aa 21-365: MAM domain, Ig domain and first FNIII repeat; held on streptavidin beads by the biotin on the avi tag; the species is stated only for the full-length protein and by the UniProt entry; also called extracellular fragment of PTPmu; source: bacterially expressed
B1: the binding result is on record as “binds”.
